Values quoted from earlier work in paper PMC11468230.

Legend:
[1] = target: KV channel (Kv1.3) (Homo sapiens) (UniProt P22001)
IKCa1 (Homo sapiens) = IKCa1 (Homo sapiens) (UniProt O15554)
Kv1.3 (Homo sapiens) = Kv1.3 (Homo sapiens) (UniProt P22001)
[2] = target: GLP-1 receptor (Homo sapiens) (UniProt P43220)
Sequence of UniProt P43220 (P43220 24-463): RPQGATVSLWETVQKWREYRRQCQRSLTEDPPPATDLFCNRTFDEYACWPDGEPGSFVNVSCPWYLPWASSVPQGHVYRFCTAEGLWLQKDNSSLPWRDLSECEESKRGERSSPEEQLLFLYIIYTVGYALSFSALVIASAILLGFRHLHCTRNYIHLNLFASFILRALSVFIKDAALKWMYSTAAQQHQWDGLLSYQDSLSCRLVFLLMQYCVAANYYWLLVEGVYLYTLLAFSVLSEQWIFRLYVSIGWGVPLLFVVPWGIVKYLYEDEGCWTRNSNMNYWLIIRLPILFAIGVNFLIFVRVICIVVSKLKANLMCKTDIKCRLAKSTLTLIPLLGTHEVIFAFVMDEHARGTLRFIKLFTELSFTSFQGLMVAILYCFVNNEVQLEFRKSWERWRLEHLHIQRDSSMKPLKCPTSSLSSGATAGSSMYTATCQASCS

Sequence of UniProt O15554 (O15554 whole entry): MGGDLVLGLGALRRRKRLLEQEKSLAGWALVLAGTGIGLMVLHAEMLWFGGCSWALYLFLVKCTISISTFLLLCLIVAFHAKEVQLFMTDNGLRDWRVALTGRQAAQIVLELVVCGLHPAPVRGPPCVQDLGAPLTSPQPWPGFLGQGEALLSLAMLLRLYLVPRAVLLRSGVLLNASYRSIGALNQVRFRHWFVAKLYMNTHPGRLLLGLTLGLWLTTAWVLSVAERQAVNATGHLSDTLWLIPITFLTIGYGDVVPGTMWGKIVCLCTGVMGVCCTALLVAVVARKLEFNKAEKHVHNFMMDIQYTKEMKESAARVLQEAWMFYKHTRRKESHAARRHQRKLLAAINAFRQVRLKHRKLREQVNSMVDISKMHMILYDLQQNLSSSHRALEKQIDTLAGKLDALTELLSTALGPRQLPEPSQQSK

For Charybdotoxin (from UniProt P13487), the Kd [1] is given as 3 nM and the Kd (IKCa1 (Homo sapiens)) is given as 5 nM.

In the case of ShK (from UniProt P29187), the Kd (Kv1.3 (Homo sapiens)) is given as 0.011 nM.

In the case of exendin-4 (from UniProt P26349), the Ki [2] is listed as 0.46 nM.
